For this assay, the target named is T1, peptide fragment of the human prorenin receptor protein, 200-213th polypeptide (SEQ ID NO: 37) (human).
T1 construct: For immunisation, KLH was linked to its amino terminus; also called peptide fragment of the prorenin receptor
T1 peptide: HKHLAKDHSPDLYS
In words: BLI (BLItz, Pall ForteBio), antibody in hybridoma culture liquid against the prorenin receptor peptide fragment. Background: In BLI a coated tip is dipped into the sample, and binding shifts an interference pattern.

The source of these data is patent WO2018084236A1 (dated 2018).

B1: anti-prorenin receptor monoclonal antibody 8_6 (antibody, IgM, V domains shown)
VH: VQLVESGGGLVQPGRSLKLSCAASGFTFSNYYMAWVRHAPKKGLEWVATISTSGSRTYYPDSVKGRFTISRDNAKSSLYLQMNSLKSEDTATYYCARHEFGAFDYWGQGVTV
VL: DIVMTQSPSSLAVSAGETVTINCKSSQSLLYSGNQKNYLAWYQQKPGQSPKLLIYWASTRQSGVPDRFIGSGSGTDFTLTISSVQAEDLAIYYCQQYYDTPYTFGAGTK
notes: Rat hybridoma antibody, isotype IgM; Hybridoma culture liquid was tested in the BLI screen
Turning to B1, the binding result is given as “binds”.
